{"source": "paper PMC2911377", "molecular_target": "amino terminal enhancer of Split (AES), HA tagged (human) (UniProt Q08117)", "sequence (Q08117 whole entry)": "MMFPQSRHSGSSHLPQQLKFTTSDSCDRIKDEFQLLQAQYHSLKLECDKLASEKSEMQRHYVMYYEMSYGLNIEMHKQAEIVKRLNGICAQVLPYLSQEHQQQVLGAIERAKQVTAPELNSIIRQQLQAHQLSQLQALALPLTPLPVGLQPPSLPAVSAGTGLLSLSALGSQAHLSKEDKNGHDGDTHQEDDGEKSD"}
{"substance": "GFP-LRP6-ICD-myc-NLS (wild type LRP6-ICD with a nuclear localization signal) (domain or fragment)", "values": [{"measurement": "repression of AES mediated TOP (TOPflash, TCF/LEF-1 luciferase reporter) transcription in HEK 293T cells co-transfected with AES-HA and GFP-LRP6-ICD-NLS, 24 hrs", "result": 138, "unit": "%"}]}
